Measurements: the supplement of paper PMC10567573
± gives the standard deviation.

Assay: protein stability index of a GFP-peptide fusion (GPS, HEK-293T) (PSI 1-6); higher = more stable
[1] = treatment: DMSO, c terminus: a fixed tail appended
[2] = treatment: MLN4924 1 uM, 8 h, c terminus: a fixed tail appended
[3] = treatment: DMSO, c terminus: native
[4] = treatment: MLN4924 1 uM, 8 h, c terminus: native
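Note: 24-mer peptide tiles fused after GFP, lentivirally expressed, FACS-sorted into six equal bins by GFP/DsRed ratio, decoded by Illumina sequencing, PSI is the read-weighted mean bin number.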

Sequence | protein stability index [1] | protein stability index [2] | protein stability index [3] | protein stability index [4]
IEAEGATAPLTELLHSRNEGVATY [CTNNB1] | 4.32 ± 0.27 | 4.31 ± 0.25 | – | –
IEAKEACDWLRATGFPQYAQLYED [DLC1] | 3.21 ± 0.43 | 3.31 ± 0.083 | – | –
IEARRRALKRFVNLVARHPLFSED [SNX8] | 2.37 ± 0.67 | 2.61 ± 0.43 | – | –
IETGENVTGMELEFKRLASSKAHT [PTPRD] | 4.35 ± 0.12 | 4.33 ± 0.29 | – | –
IEVQPNFEVPYYNRGLILYRLGYF [TTC32] | 3.17 ± 0.4 | 2.73 ± 0.38 | – | –
IFLYARPNSTFPIDKSMTVVLTFI [OR4A15] | 2.84 ± 0.37 | 3 ± 0.3 | – | –
IFNYMRLGSTKLSDKDKAVGIFNT [OR3A1] | 2.1 ± 0.34 | 2.36 ± 0.25 | – | –
IGDFGISKILSSKSKAYTVVGTPC [NEK8] | 2.35 ± 0.12 | 2.47 ± 0.34 | – | –
IGELLAPAAPFDKKCGRENWTVAF [WSB1] | 2.23 ± 0.12 | 2.57 ± 0.45 | – | –
IGSKNGGKTTIILRCLDRDEPSKP [DYNC2LI1] | 2.54 ± 0.7 | 3.16 ± 0.32 | – | –
IIDCGDIVWSLAFGSSVPEKQSRC [WSB1] | 2.12 ± 0.24 | 2.35 ± 0.28 | – | –
IIHHMRLQAKALQLIVTARTTRGL [INTS4] | 2.5 ± 0.58 | 2.26 ± 0.28 | – | –
IIYPRQQLLTLRELEMIGFIENNV [TRIP13] | 2.6 ± 0.37 | 2.26 ± 0.22 | – | –
IKAVTHQVKFGQQNPRQVAQSEAE [ZC3H15] | 4.86 ± 0.2 | 4.9 ± 0.23 | – | –
IKIVLINSFGAILQGSLFGLAGLL [SLC29A1] | 2.72 ± 0.32 | 3.25 ± 0.2 | – | –
ILGKVILWILHLLLECYIQYHHSK [TMEM192] | 2.99 ± 0.51 | 2.9 ± 0.31 | – | –
ILPKELQAWVQKHHPENGEETVTM [ZNF396] | 3.5 ± 0.07 | 3.58 ± 0.29 | – | –
ILVTKVEEPSKYGVVVCEADTGRI [GMPPB] | 2.75 ± 0.18 | 2.91 ± 0.22 | – | –
IPAFCELPLDDQVALLRAHAGEHL [HNF4A] | 2.88 ± 0.26 | 3.22 ± 0.33 | – | –
IPPSSDRTPEILKKALSGLSSRWK [CDS1] | 2.39 ± 0.49 | 2.29 ± 0.46 | – | –
IQYLTENIWASQSVLSACDNLSDL [IQUB] | 2.49 ± 0.34 | 2.49 ± 0.3 | – | –
IRAMGRLKIDFGDSARADDARQLF [GNAI1] | 2.63 ± 0.25 | 2.77 ± 0.14 | – | –

Sequence | protein stability index [1] | protein stability index [2] | protein stability index [3] | protein stability index [4]
IRERILGPSHPDTSYYIRYRGAVY [FEM1C] | 2.22 ± 0.27 | 2.1 ± 0.34 | – | –
IRRPRLYLLQWLKSDKALMMLFND [PLK2] | 2.58 ± 0.48 | 2.75 ± 0.26 | – | –
IRTYLGRSPLVSGDESSLLLNAAS [RHOBTB3] | 2.62 ± 0.35 | 2.46 ± 0.34 | – | –
ISCFNNAPPAKLACPVCSKMVPRY [FAN1] | 2.24 ± 0.19 | 2.67 ± 0.26 | – | –
ISSIGQVQSYMEHYCNSSTDRRVL [SPACA9] | 3.23 ± 0.33 | 3.25 ± 0.36 | – | –
ITSSVFPSASLGKASSRKPFGILS [FBXO34] | 2.65 ± 0.12 | 2.67 ± 0.21 | – | –
IVDIKPANMEDLTEVITASEFHPH [PPP2R2C] | 3.92 ± 0.28 | 3.9 ± 0.41 | – | –
IVIGILSAYISNYAFANVFHGWKY [SLC2A12] | 3.01 ± 0.51 | 3.25 ± 0.68 | – | –
IVLGPYHVKFRSLSMVSECLFSLI [MCOLN1] | 2.94 ± 0.68 | 2.78 ± 0.42 | – | –
IYLSTSSSKFYDLFLMDLSEGELG [RHOBTB2] | 3.38 ± 0.65 | 2.9 ± 0.39 | – | –
KAILDAEPGPRPALQPSPSIRLPL [TBC1D10A] | 4.27 ± 0.15 | 4.34 ± 0.059 | – | –
KAQRDYELKKAAYDIEVNTRRAQA [FLOT1] | 4.17 ± 0.11 | 4.44 ± 0.085 | – | –
KAREKDGKGRTASPINSPARGTPS [FSD1] | 4.92 ± 0.11 | 5.19 ± 0.27 | – | –
KAYGWCSELIRHRRVHARKEPSH [ZNF232] | – | – | 2.75 ± 0.2 | 2.51 ± 0.44
KEAQYIRTERVEQAFRAIDRGDYY [PCMTD1] | 3.31 ± 0.33 | 3.34 ± 0.28 | – | –
KELGQSQKEQGLSDNILSPVMNGG [PDZK1] | 4.73 ± 0.34 | 5.09 ± 0.28 | – | –
KELGTLIPKSSDPEMRWNKGTILK [TFE3] | 4.06 ± 0.28 | 4.01 ± 0.14 | – | –
KEPPLLLGVLHPNTKLRQAERLFE [APMAP] | 2.64 ± 0.38 | 2.78 ± 0.47 | – | –
KETLAVNYEKEEEFLTNELSRKLM [CCDC6] | 4.05 ± 0.25 | 4.44 ± 0.27 | – | –
KEYDVARNTGAYTSSGLATASFRT [TEKT4] | 3.6 ± 0.26 | 3.69 ± 0.14 | – | –
KGAILTTMLATRNFSAAKSLLKKP [CAMK2D] | 2.82 ± 0.53 | 2.8 ± 0.32 | – | –
KGAVNLHMEEEVEDFLLKKPIVPT [CDC25A] | 4.14 ± 0.31 | 4.13 ± 0.2 | – | –

Sequence | protein stability index [1] | protein stability index [2] | protein stability index [3] | protein stability index [4]
KGCSLEQISMELAKVNYVKNNICF [SLC2A12] | 2.22 ± 0.35 | 2.27 ± 0.28 | – | –
KGGVQNFNKDLVQDCGFEHLVPVI [CEP70] | 2.53 ± 0.13 | 3.18 ± 0.46 | – | –
KGLSVEFALLADKAAQQGKQEEND [SNX8] | 5.237 ± 0.033 | 5.13 ± 0.21 | – | –
KGTEKQTTSETQKSVQCGTWTKHA [NETO1] | 4.84 ± 0.26 | 4.82 ± 0.13 | – | –
KIKPEARRYLEKSIKMGKRNGLHL [NLN] | 2.3 ± 0.44 | 2.53 ± 0.39 | – | –
KILYDDGKMVEEVDGRATQKLIVN [PTPRD] | 3.92 ± 0.34 | 3.605 ± 0.004 | – | –
KIRLRCQKGIPPSLRGRAWQYLSG [TBC1D10A] | 2.21 ± 0.094 | 2.09 ± 0.23 | – | –
KKAAESLRRSVEKYNSARADFEQK [FCHO1] | 4.2 ± 0.18 | 4.43 ± 0.29 | – | –
KKENKMTWAPKNKGGEERKAEGGE [IRX6] | 5.39 ± 0.2 | 5.51 ± 0.27 | – | –
KKSNSPGTASSGSSRLPQPSGAGK [ZC2HC1A] | 5.25 ± 0.19 | 5.23 ± 0.14 | – | –
KKTQETLSQAGQKTSAALSTVGSA [TPD52L2] | 4.87 ± 0.24 | 4.99 ± 0.25 | – | –
KKYRLTEHERAHRGEKPHGCSLCG [ZNF649] | 3.72 ± 0.37 | 3.85 ± 0.36 | – | –
KLKVQALKDRGLSIPRADTLDEY [LSM1] | – | – | 4.01 ± 0.2 | 4.04 ± 0.33
KLLMADQDSPLDLTVRKSQSEPSE [LCOR] | 4.82 ± 0.28 | 4.921 ± 0.036 | – | –
KLYTGPGLAIHCMQVHKETIDAVP [ZNF207] | 2.5 ± 0.36 | 2.61 ± 0.3 | – | –
KNLQQTTNTTSTQMTNIGVYVSNM [IQUB] | 3.25 ± 0.29 | 3.17 ± 0.22 | – | –
KNQGEENGFPDSTGDPLPEISKDN [EDARADD] | 5.5 ± 0.15 | 5.54 ± 0.067 | – | –
KPKPPPNSEGEQGPNGSQNSSYSQ [CCNC] | 5.43 ± 0.14 | 5.55 ± 0.18 | – | –
KPPPNSEGEQGPNGSQNSSYSQS [CCNC] | – | – | 5.36 ± 0.24 | 5.41 ± 0.27
KQDLVPGSPDDSHPKDGPSPGGTL [DLC1] | 5.53 ± 0.25 | 5.37 ± 0.43 | – | –
KQLKPWCWYCNRDFDDEKILIQHQ [ZNF207] | 2.21 ± 0.45 | 2.46 ± 0.59 | – | –
